The target of one test is Human FcRn (human, UniProt P55899 24-297; P61769 21-119, limits assumed). Kind of test: SPR, anti-kappa capture, 25C, pH 6.0; pH 6.0. How it is done:
(§1) Anti-kappa light chain antibody was immobilized onto a CM5 chip following a standard amine-coupling protocol. AB0621 was captured onto the chip and human or cynomolgus FcRn was titrated from 2000 nM as 2-fold serial dilutions. Association was monitored for 120 sec and dissociation was monitored for 180 sec. Assays were run at 25° C. at both pH 7.4 and pH 6.0. The surface of the chip was regenerated with two pulses of 10 mM glycine pH 1.5 for 20 sec at 30 μL/min followed by 10 mM NaOH for 20 sec at 30 μL/min.
A general note: In SPR one partner is held on a chip, and binding of the other changes the refractive index at the surface.

The target in a further test is Cyno FcRn (cynomolgus monkey, UniProt Q8SPV9 24-297; Q8SPW0 21-119, limits assumed). Description: SPR, anti-kappa capture, 25C, pH 6.0; pH 6.0. As for the experimental part: as §1
Cyno FcRn, sequence (Q8SPV9 24-297 limits assumed, chain 1 of 2): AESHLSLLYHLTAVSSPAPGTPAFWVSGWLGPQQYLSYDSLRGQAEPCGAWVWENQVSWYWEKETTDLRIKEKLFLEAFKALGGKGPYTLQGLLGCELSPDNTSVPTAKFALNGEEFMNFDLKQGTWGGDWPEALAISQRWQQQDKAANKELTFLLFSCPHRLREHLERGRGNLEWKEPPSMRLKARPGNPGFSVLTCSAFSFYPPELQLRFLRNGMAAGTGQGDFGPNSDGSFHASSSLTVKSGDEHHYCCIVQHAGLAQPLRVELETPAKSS
Cyno FcRn, sequence (Q8SPW0 21-119 limits assumed, chain 2 of 2): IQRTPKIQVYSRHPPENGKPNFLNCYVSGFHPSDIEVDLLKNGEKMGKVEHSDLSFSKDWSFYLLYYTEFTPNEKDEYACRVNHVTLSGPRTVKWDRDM
A further test concerns the target T1, human FcγRIIA R131 (human, UniProt P12318 34-218, limits assumed).
T1 sequence (looked up): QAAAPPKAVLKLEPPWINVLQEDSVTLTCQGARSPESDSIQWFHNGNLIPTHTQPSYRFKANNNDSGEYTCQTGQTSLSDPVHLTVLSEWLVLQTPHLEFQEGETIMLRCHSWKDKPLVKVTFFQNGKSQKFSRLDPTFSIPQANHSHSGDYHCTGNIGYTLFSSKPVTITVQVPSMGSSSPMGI
Description: SPR, AB0621 on Protein A chip, 25C, pH 7.4. How it is done:
(§2) AB0621 was captured onto a Protein A chip (Cytiva, #29127556). Human FcγRs were titrated over captured AB0621 as 3-fold serial dilutions starting from 300 nM for FcγRI, 1000 nM for FcγRIIA R131 and H131, and 3000 nM for FcγRIIB and FcγRIIIB. Association was monitored for 120 sec and dissociation was monitored for 180 sec. Assays were run at 25° C. at pH 7.4. The surface of the chip was regenerated with 10 mM glycine pH 1.5 for 20 sec at 30 μL/min.

The next test addresses T2, human FcγRIIA H131 (human, UniProt P12318 34-218, limits assumed).
T2 sequence (looked up): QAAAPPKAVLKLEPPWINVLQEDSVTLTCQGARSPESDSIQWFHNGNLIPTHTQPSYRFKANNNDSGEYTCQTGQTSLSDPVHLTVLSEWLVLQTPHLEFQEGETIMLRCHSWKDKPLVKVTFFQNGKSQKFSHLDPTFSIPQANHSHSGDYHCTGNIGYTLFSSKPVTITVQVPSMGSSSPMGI
Description: SPR, AB0621 on Protein A chip, 25C, pH 7.4. As for the experimental part: as §2

In the next test the target is human FcγRIIIB (human, UniProt O75015 17-200, limits assumed). Kind of test: SPR, AB0621 on Protein A chip, 25C, pH 7.4. How it is done: as §2
human FcγRIIIB, sequence (O75015 17-200 limits assumed): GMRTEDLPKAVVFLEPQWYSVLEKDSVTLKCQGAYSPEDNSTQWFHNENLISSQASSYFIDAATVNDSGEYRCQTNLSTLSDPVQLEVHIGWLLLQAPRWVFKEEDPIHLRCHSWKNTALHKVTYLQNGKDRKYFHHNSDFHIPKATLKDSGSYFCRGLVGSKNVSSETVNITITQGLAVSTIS
The target of a further test is human FcγRI (human, UniProt P12314 16-288, limits assumed). Description: SPR, AB0621 on Protein A chip, 25C, pH 7.4. As for the experimental part: as §2
human FcγRI, sequence (P12314 16-288 limits assumed): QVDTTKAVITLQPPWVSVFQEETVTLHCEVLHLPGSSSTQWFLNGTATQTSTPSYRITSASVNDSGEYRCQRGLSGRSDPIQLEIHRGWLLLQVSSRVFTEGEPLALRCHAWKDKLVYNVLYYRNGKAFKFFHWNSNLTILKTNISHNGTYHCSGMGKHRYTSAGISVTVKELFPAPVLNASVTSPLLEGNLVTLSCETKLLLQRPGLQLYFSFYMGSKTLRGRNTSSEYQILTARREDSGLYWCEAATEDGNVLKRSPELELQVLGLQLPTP
For a further test, the target named is T3, human FcγRIIB (human, UniProt P31994 43-217, limits assumed).
T3 sequence (looked up): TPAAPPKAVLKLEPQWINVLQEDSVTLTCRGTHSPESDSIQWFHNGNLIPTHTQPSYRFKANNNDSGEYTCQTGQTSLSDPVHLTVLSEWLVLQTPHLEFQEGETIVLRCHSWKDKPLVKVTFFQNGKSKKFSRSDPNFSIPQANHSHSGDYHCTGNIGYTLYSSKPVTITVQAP
Description: SPR, AB0621 on Protein A chip, 25C, pH 7.4. As for the experimental part:
as §2

Another test deals with T4, Cynomolgus CEACAM5 (cynomolgus monkey).
T4 construct: also called cyno CEACAM5
Kind of test: SPR, anti-hFc capture, 37C, pH 6.0. How it is done: To determine the affinity and cross-reactivity of CEACAM5 TriNKET molecules, AB0411, AB0466, or AB0621 TriNKETs were captured using an anti-human Fc capture antibody (Cytiva, #BR100839) immobilized onto a Biacore CM5 standard surface sensor chip following manufacturer instructions. Human or cynomolgus CEACAM5 were titrated over captured AB0411, AB0466, and AB0621 as 2-fold serial dilutions starting from 300 nM. Association was monitored for 300 sec and dissociation was monitored for 600 sec. The assay was run at 37° C. at pH 7.4 and 6.0. The surface of the CM5 chip was regenerated with 10 mM glycine pH 1.5 for 20 sec at 100 μL/min.

The target of another test is T5, Human CEACAM5 (K398) (human, UniProt P06731 35-685, limits assumed).
T5 construct: also called K398 allele
T5 sequence: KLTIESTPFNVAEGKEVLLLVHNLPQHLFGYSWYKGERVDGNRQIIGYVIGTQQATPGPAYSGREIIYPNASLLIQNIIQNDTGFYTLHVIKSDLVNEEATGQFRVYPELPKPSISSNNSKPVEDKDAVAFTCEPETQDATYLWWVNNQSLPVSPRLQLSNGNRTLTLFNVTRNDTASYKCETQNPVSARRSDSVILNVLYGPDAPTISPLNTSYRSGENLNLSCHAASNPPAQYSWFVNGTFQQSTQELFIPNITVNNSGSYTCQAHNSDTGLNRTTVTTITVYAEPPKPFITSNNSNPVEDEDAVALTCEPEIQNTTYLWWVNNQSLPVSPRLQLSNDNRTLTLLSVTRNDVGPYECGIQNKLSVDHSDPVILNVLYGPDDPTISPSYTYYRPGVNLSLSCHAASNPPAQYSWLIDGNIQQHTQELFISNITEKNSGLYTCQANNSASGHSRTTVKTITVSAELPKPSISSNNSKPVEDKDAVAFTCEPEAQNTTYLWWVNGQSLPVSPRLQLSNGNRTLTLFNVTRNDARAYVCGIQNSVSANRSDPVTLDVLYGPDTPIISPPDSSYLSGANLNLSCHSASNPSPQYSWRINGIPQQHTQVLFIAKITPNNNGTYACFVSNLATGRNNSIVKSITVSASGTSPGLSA
Kind of test: SPR, anti-hFc capture, 37C, pH 7.4. The method, boiled down:
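TriNKETs were captured on an anti-human Fc surface of a CM5 chip, and CEACAM5 was injected as 2-fold dilutions from 300 nM. Association ran 300 s and dissociation 600 s, at 37° C and at pH 7.4 or 6.0.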

Experimental findings from patent US20240124607A1 (Merck Sharp & Dohme, published 2024) are described below.

Human FcRn, sequence (P55899 24-297 limits assumed, chain 1 of 2): as the sequence (Q8SPV9 24-297 limits assumed, chain 1 of 2) above, with D39N, Q44E, S99G, G189S, N190S, M217L, T269S counted along it
Human FcRn, sequence (P61769 21-119 limits assumed, chain 2 of 2): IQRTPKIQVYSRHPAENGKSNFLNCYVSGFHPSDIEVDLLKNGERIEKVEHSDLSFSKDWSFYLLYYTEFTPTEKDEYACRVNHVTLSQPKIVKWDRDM

B1: AB0621 F3' CEACAM5 TriNKET (bispecific antibody, human IgG1, kappa)
chain: DIVMTQSPDSLAVSLGERATINCKSSHSLLYGNFQNNYLAWYQQKPGQPPKLLIYWASTRESGVPDRFSGSGSGTDFTLTISSLQAEDVAVYYCQQYYSYPYTFGCGTKLEIKGGGGSGGGGSGGGGSGGGGSQVQLVQSGAEVKKPGASVKVSCKASGYTFTAYTIHWVRQAPGQCLEWMGYINPSSGYTEYNQKFKDRTTLTADTSISTAYMELSRLRSDDTAVYYCTREGGLLWFDYWGQGTLVTVSSGSDKTHTCPPCPAPELLGGPSVFLFPPKPKDTLMISRTPEVTCVVVDVSHEDPEVKFNWYVDGVEVHNAKTKPREEQYNSTYRVVSVLTVLHQDWLNGKEYKCKVSNKALPAPIEKTISKAKGQPREPRVYTLPPCRDELTKNQVSLTCLVKGFYPSDIAVEWESNGQPENNYKTTPPVLVSDGSFTLYSKLTVDKSRWQQGNVFSCSVMHEALHNHYTQKSLSLSPG
heavy: EVQLVESGGGLVKPGGSLRLSCAASGFTFSSYSMNWVRQAPGKGLEWVSSISSSSSYIYYADSVKGRFTISRDNAKNSLYLQMNSLRAEDTAVYYCARGAPIGAAAGWFDPWGQGTLVTVSSASTKGPSVFPLAPSSKSTSGGTAALGCLVKDYFPEPVTVSWNSGALTSGVHTFPAVLQSSGLYSLSSVVTVPSSSLGTQTYICNVNHKPSNTKVDKKVEPKSCDKTHTCPPCPAPELLGGPSVFLFPPKPKDTLMISRTPEVTCVVVDVSHEDPEVKFNWYVDGVEVHNAKTKPREEQYNSTYRVVSVLTVLHQDWLNGKEYKCKVSNKALPAPIEKTISKAKGQPREPQVCTLPPSRDELTENQVSLTCLVKGFYPSDIAVEWESNGQPENNYKTTPPVLDSDGSFFLYSWLTVDKSRWQQGNVFSCSVMHEALHNHYTQKSLSLSPG
light: DIQMTQSPSSVSASVGDRVTITCRASQGISSWLAWYQQKPGKAPKLLIYAASSLQSGVPSRFSGSGSGTDFTLTISSLQPEDFATYYCQQGVSFPRTFGGGTKVEIKRTVAAPSVFIFPPSDEQLKSGTASVVCLLNNFYPREAKVQWKVDNALQSGNSQESVTEQDSKDSTYSLSSTLTLSKADYEKHKVYACEVTHQGLSSPVTKSFNRGEC
For the molecule B1, the Kd was 440 nM with Human FcRn; 310 nM in the test with Cyno FcRn; 330 nM with human FcγRIIA R131; 600 nM with human FcγRIIA H131; 14 nM with human FcγRI; 3300 nM with human FcγRIIB. The molecule also returned a dissociation constant Kd with Cynomolgus CEACAM5 of 6.5 nM. The binding result with human FcγRIIIB is “no binding (tested: titrated from 3000 nM)”. For the same molecule, the kon with human FcγRI is 2.6e+06 M⁻¹ s⁻¹; with Cynomolgus CEACAM5, 130000 M⁻¹ s⁻¹.

B2: AB0264 F3' CEACAM5 TriNKET (bispecific antibody, human IgG1, kappa)
chain: DIVMTQSPDSLAVSLGERATINCKSSHSLLYGNFQNNYLAWYQQKPGQPPKLLIYWASTRESGVPDRFSGSGSGTDFTLTISSLQAEDVAVYYCQQYYSYPYTFGCGTKLEIKGGGGSGGGGSGGGGSGGGGSQVQLVQSGAEVKKPGASVKVSCKASGYTFTAYTIHWVRQAPGQCLEWMGYINPSSGYTEYNQKFKDRTTLTADTSIPTAYMELSRLRSDDTAVYYCTREGGLLWFDYWGQGTLVTVSSGSDKTHTCPPCPAPELLGGPSVFLFPPKPKDTLMISRTPEVTCVVVDVSHEDPEVKFNWYVDGVEVHNAKTKPREEQYNSTYRVVSVLTVLHQDWLNGKEYKCKVSNKALPAPIEKTISKAKGQPREPRVYTLPPCRDELTKNQVSLTCLVKGFYPSDIAVEWESNGQPENNYKTTPPVLVSDGSFTLYSKLTVDKSRWQQGNVFSCSVMHEALHNHYTQKSLSLSPG
heavy: EVQLVESGGGLVKPGGSLRLSCAASGFTFSSYSMNWVRQAPGKGLEWVSSISSSSSYIYYADSVKGRFTISRDNAKNSLYLQMNSLRAEDTAVYYCARGAPIGAAAGWFDPWGQGTLVTVSSASTKGPSVFPLAPSSKSTSGGTAALGCLVKDYFPEPVTVSWNSGALTSGVHTFPAVLQSSGLYSLSSVVTVPSSSLGTQTYICNVNHKPSNTKVDKKVEPKSCDKTHTCPPCPAPELLGGPSVFLFPPKPKDTLMISRTPEVTCVVVDVSHEDPEVKFNWYVDGVEVHNAKTKPREEQYNSTYRVVSVLTVLHQDWLNGKEYKCKVSNKALPAPIEKTISKAKGQPREPQVCTLPPSRDELTENQVSLTCLVKGFYPSDIAVEWESNGQPENNYKTTPPVLDSDGSFFLYSWLTVDKSRWQQGNVFSCSVMHEALHNHYTQKSLSLSPG
light: DIQMTQSPSSVSASVGDRVTITCRASQGISSWLAWYQQKPGKAPKLLIYAASSLQSGVPSRFSGSGSGTDFTLTISSLQPEDFATYYCQQGVSFPRTFGGGTKVEIKRTVAAPSVFIFPPSDEQLKSGTASVVCLLNNFYPREAKVQWKVDNALQSGNSQESVTEQDSKDSTYSLSSTLTLSKADYEKHKVYACEVTHQGLSSPVTKSFNRGEC
In the test with Human CEACAM5 (K398), B2 yielded a Kd of 13 nM and a kon of 91000 M⁻¹ s⁻¹.

As a reminder, the Kd is the concentration at which binding is half-saturated. Read a low Kd as higher affinity. The kon is the second-order rate constant of association. Low readings indicate slow association, high ones fast association.
